Tests used:
Test in all cases: cell-based or functional assay
[1] = target: HIV-1 Env of KER2008.12 (HIV-1)
[2] = target: HIV-1 Env of CAP244.D3 (HIV-1)
[3] = target: HIV-1 Env of CAAN.A2 (HIV-1)
[4] = target: HIV-1 Env of THRO.18 (HIV-1)
[5] = target: HIV-1 Env of ZM135.10a (HIV-1)
[6] = target: HIV-1 Env of CAP210.E8 (HIV-1)
[7] = target: HIV-1 Env of UG037.8 (HIV-1)
[8] = target: HIV-1 Env of RHPA.7 (HIV-1)
[9] = target: HIV-1 Env of QH0692.42 (HIV-1)
[10] = target: HIV-1 Env of CAP256.SU (HIV-1)
[11] = target: HIV-1 Env of ZM233.6 (HIV-1)
[12] = target: HIV-1 Env of MB539.2B7 (HIV-1)
[13] = target: HIV-1 Env of CAP45.G3 (HIV-1)
[14] = target: HIV-1 Env of REJO.67 (HIV-1)
[15] = target: HIV-1 Env of 3016.V5.c36 (HIV-1)
[16] = target: HIV-1 Env of Q461.e2 (HIV-1)
[17] = target: HIV-1 Env of BG505.w6m (HIV-1)
[18] = target: HIV-1 Env of Q842.d12 (HIV-1)
[19] = target: HIV-1 Env of AC10.29 (HIV-1)
[20] = target: HIV-1 Env of TRO.11 (HIV-1)
[21] = target: HIV-1 Env of ZM249.1 (HIV-1)
[22] = target: HIV-1 Env of PVO.04 (HIV-1)
[23] = target: HIV-1 Env of CM244.ec1 (HIV-1)
[24] = target: HIV-1 Env of ZM197.7 (HIV-1)
[25] = target: HIV-1 Env of SC422.8 (HIV-1)
[26] = target: HIV-1 Env of DU422.01 (HIV-1)
[27] = target: HIV-1 Env of RW020.2 (HIV-1)
[28] = target: HIV-1 Env of 0260.v5.c36 (HIV-1)
[29] = target: HIV-1 Env of Q259.d2.17 (HIV-1)
[30] = target: HIV-1 Env of CNE3 (HIV-1)
[31] = target: HIV-1 Env of 6405.v4.c34 (HIV-1)
[32] = target: HIV-1 Env of CAP256.PI (HIV-1)
[33] = target: HIV-1 Env of Q769.d22 (HIV-1)
[34] = target: HIV-1 Env of MB201 (HIV-1)
[35] = target: HIV-1 Env of DU172.17 (HIV-1)
[36] = target: HIV-1 Env of TRJO.58 (HIV-1)
[37] = target: HIV-1 Env of 96ZM651.02 (HIV-1)
[38] = target: HIV-1 Env of 6535.3 (HIV-1)
[39] = target: HIV-1 Env of ZM214.15 (HIV-1)
[40] = target: HIV-1 Env of Q23.17 (HIV-1)
[41] = target: HIV-1 Env of WITO.33 (HIV-1)
[42] = target: HIV-1 Env of TH976.17 (HIV-1)
[43] = target: HIV-1 Env of C1080.c3 (HIV-1)
[44] = target: HIV-1 Env of DU156.12 (HIV-1)
[45] = target: HIV-1 Env of KER2018.11 (HIV-1)
[46] = target: HIV-1 Env of ZM109.4 (HIV-1)
[47] = target: HIV-1 Env of ZM53.12 (HIV-1)
[48] = target: HIV-1 Env of Q168.a2 (HIV-1)

## CAP256-VRC26.28 (antibody)
[1]
  IC50 (neutralization, TZM-bl): 0.76 µg/mL
[2]
  IC50 (neutralization, TZM-bl): > 50 µg/mL
[3]
  IC50 (neutralization, TZM-bl): > 50 µg/mL
[4]
  IC50 (neutralization, TZM-bl): > 50 µg/mL
[5]
  IC50 (neutralization, TZM-bl): > 50 µg/mL
[6]
  IC50 (neutralization, TZM-bl): < 0.0006 µg/mL
[7]
  IC50 (neutralization, TZM-bl): > 50 µg/mL
[8]
  IC50 (neutralization, TZM-bl): > 50 µg/mL
[9]
  IC50 (neutralization, TZM-bl): > 50 µg/mL
[10]
  IC50 (neutralization, TZM-bl): < 0.0006 µg/mL
[11]
  IC50 (neutralization, TZM-bl): 0.002 µg/mL
[12]
  IC50 (neutralization, TZM-bl): 29.4 µg/mL
[13]
  IC50 (neutralization, TZM-bl): 0.016 µg/mL
[14]
  IC50 (neutralization, TZM-bl): > 50 µg/mL
[15]
  IC50 (neutralization, TZM-bl): 0.008 µg/mL
[16]
  IC50 (neutralization, TZM-bl): 1.59 µg/mL
[17]
  IC50 (neutralization, TZM-bl): 0.044 µg/mL
[18]
  IC50 (neutralization, TZM-bl): 0.779 µg/mL
[19]
  IC50 (neutralization, TZM-bl): > 50 µg/mL
[20]
  IC50 (neutralization, TZM-bl): > 50 µg/mL
[21]
  IC50 (neutralization, TZM-bl): 0.082 µg/mL
[22]
  IC50 (neutralization, TZM-bl): 6 µg/mL
[23]
  IC50 (neutralization, TZM-bl): 0.64 µg/mL
[24]
  IC50 (neutralization, TZM-bl): 0.193 µg/mL
[25]
  IC50 (neutralization, TZM-bl): > 50 µg/mL
[26]
  IC50 (neutralization, TZM-bl): 0.075 µg/mL
[27]
  IC50 (neutralization, TZM-bl): > 50 µg/mL
[28]
  IC50 (neutralization, TZM-bl): > 50 µg/mL
[29]
  IC50 (neutralization, TZM-bl): 0.012 µg/mL
[30]
  IC50 (neutralization, TZM-bl): > 50 µg/mL
[31]
  IC50 (neutralization, TZM-bl): > 50 µg/mL
[32]
  IC50 (neutralization, TZM-bl): > 50 µg/mL
[33]
  IC50 (neutralization, TZM-bl): > 50 µg/mL
[34]
  IC50 (neutralization, TZM-bl): > 50 µg/mL
[35]
  IC50 (neutralization, TZM-bl): > 50 µg/mL
[36]
  IC50 (neutralization, TZM-bl): > 50 µg/mL
[37]
  IC50 (neutralization, TZM-bl): > 50 µg/mL
[38]
  IC50 (neutralization, TZM-bl): > 50 µg/mL
[39]
  IC50 (neutralization, TZM-bl): 6.85 µg/mL
[40]
  IC50 (neutralization, TZM-bl): 0.005 µg/mL
[41]
  IC50 (neutralization, TZM-bl): > 50 µg/mL
[42]
  IC50 (neutralization, TZM-bl): > 50 µg/mL
[43]
  IC50 (neutralization, TZM-bl): 0.012 µg/mL
[44]
  IC50 (neutralization, TZM-bl): 0.171 µg/mL
[45]
  IC50 (neutralization, TZM-bl): < 0.0006 µg/mL
[46]
  IC50 (neutralization, TZM-bl): > 50 µg/mL
[47]
  IC50 (neutralization, TZM-bl): < 0.0006 µg/mL
[48]
  IC50 (neutralization, TZM-bl): 0.003 µg/mL

## CAP256-VRC26.30 (antibody)
[1]
  IC50 (neutralization, TZM-bl): > 50 µg/mL
[2]
  IC50 (neutralization, TZM-bl): > 50 µg/mL
[3]
  IC50 (neutralization, TZM-bl): > 50 µg/mL
[4]
  IC50 (neutralization, TZM-bl): > 50 µg/mL
[5]
  IC50 (neutralization, TZM-bl): > 50 µg/mL
[6]
  IC50 (neutralization, TZM-bl): < 0.0006 µg/mL
[7]
  IC50 (neutralization, TZM-bl): > 50 µg/mL
[8]
  IC50 (neutralization, TZM-bl): > 50 µg/mL
[9]
  IC50 (neutralization, TZM-bl): > 50 µg/mL
[10]
  IC50 (neutralization, TZM-bl): < 0.0006 µg/mL
[11]
  IC50 (neutralization, TZM-bl): 0.188 µg/mL
[12]
  IC50 (neutralization, TZM-bl): > 50 µg/mL
[13]
  IC50 (neutralization, TZM-bl): 0.317 µg/mL
[14]
  IC50 (neutralization, TZM-bl): > 50 µg/mL
[15]
  IC50 (neutralization, TZM-bl): 1.05 µg/mL
[16]
  IC50 (neutralization, TZM-bl): > 50 µg/mL
[17]
  IC50 (neutralization, TZM-bl): 9.04 µg/mL
[18]
  IC50 (neutralization, TZM-bl): > 50 µg/mL
[19]
  IC50 (neutralization, TZM-bl): > 50 µg/mL
[20]
  IC50 (neutralization, TZM-bl): > 50 µg/mL
[21]
  IC50 (neutralization, TZM-bl): 0.762 µg/mL
[22]
  IC50 (neutralization, TZM-bl): 12.6 µg/mL
[23]
  IC50 (neutralization, TZM-bl): > 50 µg/mL
[24]
  IC50 (neutralization, TZM-bl): 1 µg/mL
[25]
  IC50 (neutralization, TZM-bl): > 50 µg/mL
[26]
  IC50 (neutralization, TZM-bl): 0.4 µg/mL
[27]
  IC50 (neutralization, TZM-bl): > 50 µg/mL
[28]
  IC50 (neutralization, TZM-bl): > 50 µg/mL
[29]
  IC50 (neutralization, TZM-bl): 0.107 µg/mL
[30]
  IC50 (neutralization, TZM-bl): > 50 µg/mL
[31]
  IC50 (neutralization, TZM-bl): > 50 µg/mL
[32]
  IC50 (neutralization, TZM-bl): > 50 µg/mL
[33]
  IC50 (neutralization, TZM-bl): > 50 µg/mL
[34]
  IC50 (neutralization, TZM-bl): > 50 µg/mL
[35]
  IC50 (neutralization, TZM-bl): > 50 µg/mL
[36]
  IC50 (neutralization, TZM-bl): > 50 µg/mL
[37]
  IC50 (neutralization, TZM-bl): 37.8 µg/mL
[38]
  IC50 (neutralization, TZM-bl): > 50 µg/mL
[39]
  IC50 (neutralization, TZM-bl): > 50 µg/mL
[40]
  IC50 (neutralization, TZM-bl): > 50 µg/mL
[41]
  IC50 (neutralization, TZM-bl): > 50 µg/mL
[42]
  IC50 (neutralization, TZM-bl): > 50 µg/mL
[43]
  IC50 (neutralization, TZM-bl): 0.073 µg/mL
[44]
  IC50 (neutralization, TZM-bl): 0.848 µg/mL
[45]
  IC50 (neutralization, TZM-bl): < 0.0006 µg/mL
[46]
  IC50 (neutralization, TZM-bl): > 50 µg/mL
[47]
  IC50 (neutralization, TZM-bl): < 0.0006 µg/mL
[48]
  IC50 (neutralization, TZM-bl): 0.199 µg/mL

Source: patent publication US20200199204A1
